Reference: patent US6191256A, “Recombinant factor VIII binding peptides” (Bayer Corporation, priority 1998, dated 2001)

What was measured:
[1] = target: T1, rFVIII (Homo sapiens, UniProt P00451); assay: rFVIII activity recovery from peptide columns by chromogenic substrate assay (COATEST); type: biochemical; details: for 0.5M CaCl2 % total: activity recovery; for Flow through IU: rFVIII activity in fraction; for Activity results % total: Table 9, 0.5M CaCl2 fraction
Protocol: (§1) Immunoassay on rFVIII using a sandwich capture ELISA for the light chain and activity assay using a chromogenic substrate (COATEST Factor VIII kit from diaPharma, Franklin, Ohio) were performed on a BIOMEK® automated liquid handling system from Beckman Instruments (Brea, Calif.). The monoclonal antibody for rFVIII light chain (known as C7F7), the ELISA assay standard (lot A70K019), and the control for the activity assay (lot A70A001 @ 140 IU/mL) were from the Bayer Corporation (Berkeley, Calif.). The standard for the activity assay was at 11.2 IU/mL (Bayer, Clayton, N.C.), calibrated against the MEGA 1 standard, which is a working standard used by American manufacturers for measuring factor VIII activity (21).
(§2) Additional confirmatory binding assay and performance of the discovered binding peptides in terms of total rFVIII and activity recovery was performed in a column chromatographic format on a microbore HPLC. The resins were packed into 0.4×5 cm columns (Thomson, Springfield, Va.) and tested on the MICHROM HPLC system (Michrom BioResources, Auburn, Calif.). The elution program for the trials utilized the following method. The column was pre-equilibrated with equilibration buffer (as above). A 1 mL aliquot of 1:10 PPF followed by 1 mL of rFVIII (10,000 ng) in 1:10 PPF were injected and allowed sufficient time to flow through the column using equilibration buffer. The column was then washed with step elutions of 0.5 M and 1.0 M CaCl2 in equilibration buffer. The column was exposed to equilibration buffer. Remaining protein was eluted with 2% by volume glacial acetic acid in water. Columns were kept at 5° C. during the chromatographic runs. For each 1 mL injection (equilibration buffer, 1:10 PPF and 10,000 ng rFVIII in 1:10 PPF), the chromatographic cycle was run for 45 minutes (injection, flow through, 0.5 M CaCl2, 1.0 M CaCl2, equilibration buffer, 2% acetic acid, equilibration buffer).
(§3) A Gilson FC204 fraction collector at the HPLC outlet collected individual eluates for further analysis. Each collection tube had 100 μL hSA added to it to stabilize the rFVIII. Fractions collected from the 2% acetic acid eluates were neutralized with 2 M Tris, pH 10.5 to bring the pH to neutrality. The fractions were analyzed for total protein by the integration of the absorbance at 280 nm, for rFVIII by immunoassay (sandwich capture ELISA), and for rFVIII activity by a chromogenic substrate assay.
Tables 7 and 8 list the sequences for which activity recovery was determined by a chromogenic substrate assay (COASTEST kit, diaPharma, Franklin, Ohio). Chromatographc conditions are the same as described above for the results from Tables 5 and 6. It can be

[2] = target: T1, rFVIII; assay: confirmatory binding assay in filtration plate format using 14C-rFVIII; details: for 0.5M CaCl2 % total / 2% acetic acid % total / 2% acetic acid dpm / 0.5M CaCl2 dpm: 5 mg beads; for 0.5M CaCl2 dpm: 5° C.; for beads % total / beads dpm: remaining on beads after washes
Protocol: Confirmatory binding assays were performed in a filtration plate format using individual peptide sequences synthesized directly onto the TOYOPEARL AF amino 650 M resin, at a final substitution density of 0.1 mmole/g resin. A slurry of each individual peptide sequence was prepared using deionized water. A 100 μL volume of beads (corresponding to 5 mg) was loaded into each well of the filtration plate (MULTISCREEN Assay System, Millipore, Bedford, Mass.), in triplicate for each peptide sequence. Beads were washed with 20% ethanol and incubated overnight with equilibration buffer (20 mM imidazole, 10 mM
CaCl2, 0.105 M NaCl, pH 6.9). A 100 μL aliquot of ^14 C-rFVIII diluted in neat PPF to a final concentration of 20-30 nM was loaded into each well and incubated for 1 hour at 5° C. Filtrate (unbound ^14 C-rFVIII) was collected into a microtiter plate and transferred to liquid scintillation vials for dpm counting. Beads were washed sequentially with: 100 μL of equilibration buffer for 15 minutes, 200 μL of 0.5 M CaCl2 (in equilibration buffer), 200 μL of 1.0 M CaCl2 (in equilibration buffer), and 200 uL of 2% by volume glacial acetic acid in water, for 1 hour each at 5° C. Scintillation counting on the unbound ^14 C-rFVIII (plus equilibration buffer wash), salt and acid washes, as well as on the beads was then performed and the overall mass balance calculated.
Beads presenting the appropriate peptide sequence on the surface were placed in the filtration plate wells and incubated sequentially with equilibration buffer, ^14 C-rFVIII in PPF, equilibration buffer, 0.5 M CaCl2 wash, 1.0 M CaCl2 wash and 2% acetic acid wash. After each incubation, filtrate was collected in microtiter plates, and dpm counted on each
In Table 3, the ^14 C-rFVIII was loaded at 20 nM (in PPF) and the radiolabeling yield was at 3.0×10^15 dpm/mole. In Table 4, the ^14 C-rFVIII was loaded at 30 nM (in PPF) and the radiolabeling yield was at 5.0×10^15 dpm/mole.

[3] = target: T1, rFVIII; assay: column format binding assay, rFVIII mass per fraction by sandwich capture ELISA for the light chain; details: for Flow through ng: 10,000 ng rFVIII in 1:10 PPF injected, 5° C.; for ELISA results % total: Table 9, 0.5M CaCl2 fraction
Protocol: as §1, §2, §3
Tables 5 and 6 present the results from the additional confirmatory binding assays using the column format. The chromatography method was run by injecting the samples at a flow rate of 865 μL/min (413 cm/hr). In order to provide a 10 minute residence time of sample in the column the flow was decreased to 17 μL/min (10 cm/hr) upon injection.
Following the incubation, the flow was set at 865 μL/min (413 cm/hr) for the step clutions of 0.5 M CaCl2, 1.0 M CaCl2, and 2% acetic acid. Results are expressed in terms of the total mass of rFVIII in each fraction, as determined by the sandwich capture ELISA assay for the rFVIII light chain. […] A control using a non-binding peptide sequence (IGF) is also shown for comparison--in this case, 95% of the rFVIII loaded to the column was collected in the flow through fraction. Additional controls with no

[4] = Table 4, 14C-rFVIII 30 nM in PPF
[5] = Table 4, 14C-rFVIII 30 nM in PPF, 5.0 × 10^15 dpm/mole
[6] = Table 3, 14C-rFVIII 20 nM in PPF
[7] = Table 3, 14C-rFVIII 20 nM in PPF, 3.0 × 10^15 DPM/mole

T1 sequence (P00451 20-2351): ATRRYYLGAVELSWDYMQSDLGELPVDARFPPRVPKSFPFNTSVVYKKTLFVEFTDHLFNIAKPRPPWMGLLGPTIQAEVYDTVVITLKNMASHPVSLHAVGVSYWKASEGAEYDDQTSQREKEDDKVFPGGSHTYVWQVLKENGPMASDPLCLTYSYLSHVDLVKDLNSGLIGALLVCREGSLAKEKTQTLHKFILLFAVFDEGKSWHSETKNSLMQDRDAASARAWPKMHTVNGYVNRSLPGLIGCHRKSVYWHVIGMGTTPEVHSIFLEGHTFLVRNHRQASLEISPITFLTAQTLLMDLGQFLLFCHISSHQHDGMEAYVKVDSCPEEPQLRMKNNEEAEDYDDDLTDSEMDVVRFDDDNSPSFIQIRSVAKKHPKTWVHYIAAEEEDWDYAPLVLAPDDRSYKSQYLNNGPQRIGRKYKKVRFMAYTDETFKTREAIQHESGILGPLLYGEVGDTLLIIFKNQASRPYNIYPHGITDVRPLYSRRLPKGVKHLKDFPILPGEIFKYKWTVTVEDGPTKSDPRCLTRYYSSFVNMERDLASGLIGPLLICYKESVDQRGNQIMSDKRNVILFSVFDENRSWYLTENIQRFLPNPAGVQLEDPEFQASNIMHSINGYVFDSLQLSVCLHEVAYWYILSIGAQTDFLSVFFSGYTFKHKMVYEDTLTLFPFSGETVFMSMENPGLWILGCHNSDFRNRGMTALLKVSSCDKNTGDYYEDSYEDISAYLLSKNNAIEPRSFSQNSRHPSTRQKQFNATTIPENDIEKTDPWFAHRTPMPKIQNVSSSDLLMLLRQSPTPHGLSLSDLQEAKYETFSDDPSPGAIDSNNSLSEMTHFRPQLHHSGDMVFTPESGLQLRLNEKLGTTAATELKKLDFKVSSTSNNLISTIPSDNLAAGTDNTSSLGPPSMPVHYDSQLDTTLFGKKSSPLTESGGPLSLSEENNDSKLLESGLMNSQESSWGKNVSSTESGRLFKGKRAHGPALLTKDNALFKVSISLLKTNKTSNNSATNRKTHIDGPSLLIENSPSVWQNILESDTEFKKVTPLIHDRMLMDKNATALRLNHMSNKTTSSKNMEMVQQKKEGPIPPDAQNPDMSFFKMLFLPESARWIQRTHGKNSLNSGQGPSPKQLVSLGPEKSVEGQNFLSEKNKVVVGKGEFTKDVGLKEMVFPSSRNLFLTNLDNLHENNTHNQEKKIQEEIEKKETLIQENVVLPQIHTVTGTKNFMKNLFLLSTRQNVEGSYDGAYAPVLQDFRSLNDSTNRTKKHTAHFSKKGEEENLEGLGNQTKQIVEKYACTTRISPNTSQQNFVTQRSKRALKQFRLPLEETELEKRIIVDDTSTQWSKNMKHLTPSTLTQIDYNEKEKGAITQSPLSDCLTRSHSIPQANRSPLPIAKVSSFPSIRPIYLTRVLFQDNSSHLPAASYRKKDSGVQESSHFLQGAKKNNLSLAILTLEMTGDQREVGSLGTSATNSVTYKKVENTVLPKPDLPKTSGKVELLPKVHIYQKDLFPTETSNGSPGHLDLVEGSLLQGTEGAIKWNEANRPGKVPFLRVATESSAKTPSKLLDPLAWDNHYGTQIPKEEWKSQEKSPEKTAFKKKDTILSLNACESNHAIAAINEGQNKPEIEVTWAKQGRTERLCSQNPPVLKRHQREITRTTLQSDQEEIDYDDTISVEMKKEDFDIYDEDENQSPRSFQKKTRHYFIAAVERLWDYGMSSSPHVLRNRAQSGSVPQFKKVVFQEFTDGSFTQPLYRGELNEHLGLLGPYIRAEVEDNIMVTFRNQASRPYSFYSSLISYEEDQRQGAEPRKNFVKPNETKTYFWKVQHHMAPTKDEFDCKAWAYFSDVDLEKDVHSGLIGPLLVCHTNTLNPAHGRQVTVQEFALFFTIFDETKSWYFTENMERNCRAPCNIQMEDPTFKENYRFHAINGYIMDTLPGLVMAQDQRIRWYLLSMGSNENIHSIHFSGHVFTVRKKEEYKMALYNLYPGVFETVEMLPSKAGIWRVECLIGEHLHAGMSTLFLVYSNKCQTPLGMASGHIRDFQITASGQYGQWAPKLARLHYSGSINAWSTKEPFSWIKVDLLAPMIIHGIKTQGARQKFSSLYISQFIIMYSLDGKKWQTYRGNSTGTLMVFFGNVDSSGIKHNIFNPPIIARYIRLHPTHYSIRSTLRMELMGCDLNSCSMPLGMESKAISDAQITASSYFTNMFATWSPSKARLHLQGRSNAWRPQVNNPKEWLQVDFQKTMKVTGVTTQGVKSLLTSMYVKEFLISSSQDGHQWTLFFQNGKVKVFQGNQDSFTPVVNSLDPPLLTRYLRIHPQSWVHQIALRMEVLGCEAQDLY
T1 sequence (P00451 1668-2351 limits assumed): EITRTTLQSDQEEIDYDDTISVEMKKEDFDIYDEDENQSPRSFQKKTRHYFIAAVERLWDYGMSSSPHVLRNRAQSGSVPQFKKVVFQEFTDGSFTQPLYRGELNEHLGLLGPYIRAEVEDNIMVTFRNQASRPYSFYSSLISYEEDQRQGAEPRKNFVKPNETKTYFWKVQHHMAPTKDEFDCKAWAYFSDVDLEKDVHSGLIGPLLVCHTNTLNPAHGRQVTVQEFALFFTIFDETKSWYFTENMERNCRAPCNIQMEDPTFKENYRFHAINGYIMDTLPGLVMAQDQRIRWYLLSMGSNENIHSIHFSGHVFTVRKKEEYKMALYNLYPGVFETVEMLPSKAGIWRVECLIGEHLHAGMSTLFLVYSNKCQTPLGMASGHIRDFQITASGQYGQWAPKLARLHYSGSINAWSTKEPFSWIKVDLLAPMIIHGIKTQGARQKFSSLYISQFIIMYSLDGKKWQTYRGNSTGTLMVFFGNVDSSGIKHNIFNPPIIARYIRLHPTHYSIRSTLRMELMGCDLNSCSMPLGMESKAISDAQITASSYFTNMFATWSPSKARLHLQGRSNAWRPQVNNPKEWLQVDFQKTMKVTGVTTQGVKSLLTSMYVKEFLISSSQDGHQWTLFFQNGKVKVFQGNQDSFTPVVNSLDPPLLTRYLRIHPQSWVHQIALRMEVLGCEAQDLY

## 9 (FALPGR) [compound 9]
[1]; Table 8
  0.5M CaCl2 IU: 68.9 IU
  2% acetic acid % total: 0%
  2% acetic acid IU: 0.1 IU
  Flow through % total: 0%
  Total IU: 70.2 IU
  0.5M CaCl2 % total: 98%
  Flow through IU: 0.0 IU
[1]
  Activity results % total: 98%
[2]; Table 4, 14C-rFVIII 30 nM
  Total dpm: 3658 dpm
  beads % total: 2%
  beads dpm: 68 dpm
[2]; [4]
  0.5M CaCl2 % total: 93%
  2% acetic acid % total: 5%
  2% acetic acid dpm: 176 dpm
[2]; [5]
  0.5M CaCl2 dpm: 3414 dpm
[3]; Table 6
  0.5M CaCl2 ng: 7154 ng
  0.5M CaCl2 % total: 97%
  2% acetic acid % total: 2%
  2% acetic acid ng: 181 ng
  Flow through % total: 0%
  Total ng: 7403 ng
  Flow through ng: 0 ng
[3]
  ELISA results % total: 97%

## 20 (WHHHRG) [compound 20]
[1]; Table 8
  0.5M CaCl2 IU: 0.4 IU
  2% acetic acid % total: 45%
  2% acetic acid IU: 3.5 IU
  Flow through % total: 0%
  Total IU: 7.8 IU
  0.5M CaCl2 % total: 4%
  Flow through IU: 0.0 IU
[2]; Table 4, 14C-rFVIII 30 nM
  Total dpm: 3884 dpm
  beads % total: 33%
  beads dpm: 1300 dpm
[2]; [4]
  0.5M CaCl2 % total: 12%
  2% acetic acid % total: 54%
  2% acetic acid dpm: 2099 dpm
[2]; [5]
  0.5M CaCl2 dpm: 485 dpm
[3]; Table 6
  0.5M CaCl2 ng: 36 ng
  0.5M CaCl2 % total: 1%
  2% acetic acid % total: 95%
  2% acetic acid ng: 4719 ng
  Flow through % total: 0%
  Total ng: 4966 ng
  Flow through ng: 0 ng

## 7 (IRFYSE) [compound 7]
[1]; Table 7
  0.5M CaCl2 IU: 40.6 IU
  2% acetic acid % total: 1%
  2% acetic acid IU: 0.4 IU
  Flow through % total: 0%
  Total IU: 42.5 IU
  0.5M CaCl2 % total: 96%
  Flow through IU: 0.0 IU
[1]
  Activity results % total: 96%
[2]; Table 3, 14C-rFVIII 20 nM
  Total dpm: 3764 dpm
  beads % total: 4%
  beads dpm: 165 dpm
[2]; [6]
  0.5M CaCl2 % total: 85%
  2% acetic acid % total: 11%
  2% acetic acid dpm: 415 dpm
[2]; [7]
  0.5M CaCl2 dpm: 3184 dpm
[3]; Table 5
  0.5M CaCl2 ng: 5836 ng
  0.5M CaCl2 % total: 94%
  2% acetic acid % total: 1%
  2% acetic acid ng: 77 ng
  Flow through % total: 4%
  Total ng: 6225 ng
  Flow through ng: 228 ng
[3]
  ELISA results % total: 94%

## 2 (RNPPNN) [compound 2]
[1]; Table 7
  0.5M CaCl2 IU: 51.6 IU
  2% acetic acid % total: 1%
  2% acetic acid IU: 0.5 IU
  Flow through % total: 1%
  Total IU: 54.3 IU
  0.5M CaCl2 % total: 95%
  Flow through IU: 0.4 IU
[1]
  Activity results % total: 95%
[2]; Table 3, 14C-rFVIII 20 nM
  Total dpm: 2767 dpm
  beads % total: 3%
  beads dpm: 79 dpm
[2]; [6]
  0.5M CaCl2 % total: 86%
  2% acetic acid % total: 12%
  2% acetic acid dpm: 322 dpm
[2]; [7]
  0.5M CaCl2 dpm: 2366 dpm
[3]; Table 5
  0.5M CaCl2 ng: 5745 ng
  0.5M CaCl2 % total: 92%
  2% acetic acid % total: 0%
  2% acetic acid ng: 31 ng
  Flow through % total: 7%
  Total ng: 6245 ng
  Flow through ng: 447 ng
[3]
  ELISA results % total: 92%

## 12 (QRLIQF) [compound 12]
[1]; Table 8
  0.5M CaCl2 IU: 45.1 IU
  2% acetic acid % total: 0%
  2% acetic acid IU: 0.08 IU
  Flow through % total: 0%
  Total IU: 46.6 IU
  0.5M CaCl2 % total: 97%
  Flow through IU: 0.0 IU
[1]
  Activity results % total: 97%
[2]; Table 4, 14C-rFVIII 30 nM
  Total dpm: 3557 dpm
  beads % total: 3%
  beads dpm: 95 dpm
[2]; [4]
  0.5M CaCl2 % total: 90%
  2% acetic acid % total: 8%
  2% acetic acid dpm: 271 dpm
[2]; [5]
  0.5M CaCl2 dpm: 3191 dpm
[3]; Table 6
  0.5M CaCl2 ng: 9223 ng
  0.5M CaCl2 % total: 96%
  2% acetic acid % total: 2%
  2% acetic acid ng: 188 ng
  Flow through % total: 0%
  Total ng: 9579 ng
  Flow through ng: 0 ng
[3]
  ELISA results % total: 96%
